Molecular target: recombinant, non-biotinylated HLA-A*01:01 (α-chain, β2m, peptide […]) (Homo sapiens, HLA-A*01:01; peptide from …, strain)
Experiment: crystal structure

binding result: binds
B1: Fab of rmAb E07 (Fab, V domains shown)
VH: QVQLQESGGGVVQPGGSLRLSCAASGFNFSNYGMHWVRQTPGKGLEWVASIPYDGSHQWHADSVKGRFTISRDNSKNTLYLQINSLRPEDTAMYYCSKARISYLSAPAWWFDPWGQGTLVTVSS
VL: QSVSTQPPSVSVAPGQTARITCGGNNIGSKSVHWYRQKPGQAPVLVVYDNNARPSGIPERISGSNFANTATLTISRVEAGDEADYYCHVWDSSSDHVVFGGGTKLTVL

From article doi:10.1101/2023.03.31.534734 (bioRxiv, 2023)
